Experimental data from the supplement of paper PMC12764529.
± gives the half width of the 95% confidence interval.

Experiments:
[1] = folding stability dG unfold (combined trypsin and chymotrypsin); higher = more stable
Method in brief: (§1)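 Designed mini-proteins (under 80 residues, no cysteine) in a PA-tagged cDNA display construct were digested with trypsin and chymotrypsin. Each protease was used at 11 concentrations (threefold dilutions) plus a no-protease condition, followed by sequencing. K50 was inferred by Bayesian fitting of sequencing counts, and unfolding free energy was derived against a sequence-predicted unfolded-state K50 and a shared folded-state K50, per protease or combined. Only designs with AlphaFold2 dimer inter-PAE above 15 were kept.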

[2] = folding stability dG unfold from chymotrypsin proteolysis; higher = more stable
Method in brief: as §1

[3] = folding stability dG unfold from trypsin proteolysis; higher = more stable
Method in brief: as §1

Sequence	folding stability dG unfold [1] [kcal/mol]	folding stability dG unfold [2] [kcal/mol]	folding stability dG unfold [3] [kcal/mol]
SAGGKLTITLPPGVKEVKIEVDKETNEVKVTVTVEVTDENGKKHKVTRTFTFKLEDGETVTVTVTLPSAGGS [r16_552_TrROS_Hall]	5.44 ± 0.28	5.43 ± 0.13	4.42 ± 0.27
SAGGKLTLEEIKALLKEGKEYSLEELLKKIAELLNLTVELEEEPEKVTVVKVDPETGEIVEEKEIDLSAGGS [r8_105_TrROS_Hall]	2.28 ± 0.11	2.44 ± 0.036	2.01 ± 0.1
SAGGKLTPEEIEELAKKLAEELRKEGKEVEIEVEIEVDGKLIKIKMKIDPKTKKIEIVKIEVYPKEDLSAGG [r13_37_TrROS_Hall]	3.58 ± 0.21	2.93 ± 0.092	3.9 ± 0.14
SAGGKMKLEVEILENEGTILVRFHFGDKVLEIPLPFPNLTPEDVKEAAEEIAKKLKEEYNIEEVEIESAGGS [r16_249_TrMRF]	2.64 ± 0.28	3.18 ± 0.23	2.33 ± 0.13
SAGGKMVIVKIRIKERKVKVEKTKDGKEKKVEVEEKEKEITLIVEGSEEEVKKLAEELEKLGLEVEVISAGG [r13_452_TrROS_Hall]	2.28 ± 0.14	2.52 ± 0.079	1.2 ± 0.063
SAGGKNDVKTKTYEIEKDGGKITIEFEKLPDGKYKATVTYPDGKKETLVFDLGEGKEEEFAKEIAKKKSAGG [r13_296_TrMRF]	2.48 ± 0.38	3.05 ± 0.067	1.46 ± 0.12
SAGGKNITIDDITFQPQRDNGKPRYYMEVKVELPNGNPIPITMPMDRMQNNGMSPKTFAKWIAKWLLSAGGS [r16_625_TrROS]	1.3 ± 0.12	1.5 ± 0.22	1.04 ± 0.13
SAGGKPKEITLVVKVGETVEFPEGAEVTYDKETGTVTIKLPDGRTIRVEVTYNPDTDYLVVKITVEPSAGGS [r16_122_TrROS_Hall]	2.34 ± 0.13	2.41 ± 0.083	2.07 ± 0.074
SAGGKPKIRIKIEIYTPEKKETIELEFDSVEEALEALASLPGVKVEKLPDGTIYIKIPNLIIKIEIEPSAGG [r13_143_TrROS_Hall]	3.42 ± 0.3	3.57 ± 0.1	3.19 ± 0.2
SAGGKPKKTILIPLIVPPGKPESAIKALAEFLEAKGYELERIEPVPVGDRLRLVAIFRKPDGTEIKVGSAGG [r13_421_TrMRF]	1.78 ± 0.069	1.9 ± 0.11	1.66 ± 0.037
SAGGKPKPGQEVEMKMIMLMVTKPGEITIMRMKMEMRVNPDGNVQMDMKMEMVRVPLSKDQAKELLNASAGG [r13_544_TrROS]	3.69 ± 0.36	4.25 ± 0.24	2.68 ± 0.07
SAGGKPLLIKVKVRLKNGKELTITVREGESLEEILARARELLGKPIEVEKIEVIPLPPKKEVKKKEKSAGGS [r8_285_TrROS_Hall]	2.46 ± 0.093	2.86 ± 0.072	1.48 ± 0.019
SAGGKPNEKVKIKIKNKDGSEETIEIKVDEEVKIKIKFNGEEKEITIKKGETLTITLENAEIEVEKVSAGGS [r16_456_TrROS_Hall]	1.94 ± 0.31	1.83 ± 0.22	1.95 ± 0.16
SAGGKPVRILVIAGKGIRPLEIPVDEDKTVEAEFKFGDHTIRIRVSPKEKKIEVEAPSNFKIIILEPSAGGS [r16_761_TrMRF]	2.98 ± 0.12	3.14 ± 0.042	2.96 ± 0.092
SAGGKSIHIADATLEDLVDLIANLPEPVVIHVERPVTFPVLLLENGVVAAVRTETAPATLTLTIPPELSAGG [r13_632_TrMRF]	0.389 ± 0.05	0.258 ± 0.087	0.408 ± 0.021
SAGGKSVHIPGLSFEDLRDLIRNLPEPVTIHIEMPMRYPMYKYENGKPKEWQRQEMPMTSTFKIPPDDSAGG [r13_632_TrROS]	-0.565 ± 0.23	-0.522 ± 0.36	-1.01 ± 0.47
SAGGKTIMIMFTPDNAEEIAETIVDEFGYDVKIEKVQPMPMKDPDGKQKAPYYMIEIEIKVPDPGQPLSAGG [r13_943_TrROS]	0.505 ± 0.094	-0.282 ± 0.22	0.945 ± 0.033
SAGGKTITIKVKLENGEEKTIEVKVDEVKIEKKNGKLVITFKDGKKITIPLDKIEDMSEDEIKKLLEKSAGG [r13_925_TrROS_Hall]	2.97 ± 0.2	3.03 ± 0.18	2.72 ± 0.15

Sequence	folding stability dG unfold [1] [kcal/mol]	folding stability dG unfold [2] [kcal/mol]	folding stability dG unfold [3] [kcal/mol]
SAGGKTITLPNGITITVNEDGTVTVTVTVDGKTLTVTVKVDSLEEALAAILEELRRLLKPPEVTVVKPSAGG [r13_896_TrROS_Hall]	3.07 ± 0.17	3.43 ± 0.13	2.52 ± 0.097
SAGGKTIVIKVKTKEQAKALAEELAKKLKDAGYTVTVTYDEETGVVTVTVTVKVNGKTKKITLVLELPSAGG [r13_641_TrROS_Hall]	3.26 ± 0.038	3.05 ± 0.043	3.51 ± 0.074
SAGGKTIWIFFPPDNPEEFLEELAQLPNVTDVEVWRHNDYYMIEIRLEGLPIEIHYNPEGYYMIEIELSAGG [r13_907_TrROS]	3.48 ± 0.16	3.71 ± 0.074	2.39 ± 0.14
SAGGKTKEIELEILFEPVKVKKKKKNKNGKEEEVEEKEFKPVLVRITLKIENGKITEIKIEVEKLDDLSAGG [r13_935_TrROS_Hall]	2.93 ± 0.26	3.37 ± 0.11	2.05 ± 0.077
SAGGKTLTIEVNGKKYKITVEKNENGELTLTIYEYDKKTKKWKKIKTIKLKNMSLEEVLKLLKKLPPSAGGS [r16_378_TrROS_Hall]	4.58 ± 0.3	4.91 ± 0.19	4.09 ± 0.2
SAGGKTLYVVRITRRVRVDGKLYEVTLTLVAESEEEAEEALRKLAEELEALFPDEIRIEVEKVELPPSAGGS [r16_475_TrROS_Hall]	5.5 ± 0.25	5.7 ± 0.24	3.93 ± 0.13
SAGGKTVEVEFEAPESLSPEEIAAAILAAAPPGYFVKVEEVEVRDRPDGEKVILYKATFYDPDTGDFDSAGG [r13_12_TrMRF]	2.73 ± 0.048	2.804 ± 0.021	2.72 ± 0.081
SAGGKTVVIELDGARIEFNEDDGTITVWMPREELEALKAALPPGAEIVEVRERPDGWVQVTIRITPPSAGGS [r8_415_TrROS_Hall]	3.89 ± 0.1	4.21 ± 0.15	3.1 ± 0.14
SAGGKVEVELEDGKLRVKVFDKNGKLVEEVEVELKPVTIVIPGLSEEELQELKEKFPGAKITILEGQKSAGG [r13_235_TrROS_Hall]	2.39 ± 0.11	2.87 ± 0.08	1.73 ± 0.063
SAGGKVKALIIPAPDEPGKPVYLKIIHPDGEIVYPLPNDITEEEAKAAAIELGEENGLDLDEIEIAESAGGS [r16_753_TrMRF]	0.746 ± 0.099	0.893 ± 0.065	0.537 ± 0.032
SAGGKVKIIVFNKKTGEKIEIDLSKLKPGDIIKLPNGYYKIIDKKTKKIKVIKAKSIEELKKAIKKLSSAGG [r13_962_TrROS_Hall]	2.01 ± 0.33	2.21 ± 0.17	2.07 ± 0.15
SAGGKVKVKLSPEMIEALKKAGIKEGQKEVTIEVKLKDGSVYRVTITYDKKTNKITIKVEKVEKLPPSAGGS [r16_497_TrROS_Hall]	3.88 ± 0.32	4.16 ± 0.1	2.58 ± 0.16
SAGGKVKVTVTPDGTVTIEFEAESVEEAIKAAKAFLEEAGFEVESIPVEVPPDGTVKVTAKIKPKNASAGGS [r8_253_TrMRF]	1.67 ± 0.14	1.79 ± 0.11	1.33 ± 0.06
SAGGKVTLIEVEFEGGNPTISLTVTNADGSVEAVFVSPSPTDVLYATATLTVGGHPVVVVARASKDESAGGS [r16_672_TrMRF]	1.8 ± 0.12	2.11 ± 0.056	1.3 ± 0.094
SAGGKVTLRAPVVVPKDKIEDFIDALREALEALGLKEFKDIEIKEIIEGDDYYIIDFEVTAEADLPELASAG [r5_575_TrMRF]	2.32 ± 0.13	2.21 ± 0.036	2.65 ± 0.12
SAGGKVTVENDTLTIPFPDGFTVEITLPPNDKTAVITLHTPPNNPLALAAAKAIADSLPDYKVEVRDESAGG [r13_34_TrMRF]	0.704 ± 0.07	0.649 ± 0.06	0.662 ± 0.035
SAGGKVVTVEVELENGVRVTVEFVEEDGYLALKVTVEVRLPAPPVTTADGREKEVTRRLELVILLPKESAGG [r13_780_TrROS_Hall]	3.05 ± 0.13	3.17 ± 0.15	2.72 ± 0.14
